# Test results reported in paper PMC10532153, “Interactions of the N- and C-Terminal SH3 Domains of Drosophila Drk with the Proline-Rich Peptides from Sos and Dos” (International Journal of Molecular Sciences, 2023).
# B1: Dos-S2 peptide (Daughter of Sevenless residues 690-702) (peptide)
# peptide: GPPSVDRKCKPNA
# notes: Daughter of Sevenless (Dos), Drosophila, proline-rich motif PxxxRxxKP in the C-terminal unstructured region, residues 690-702; Thirteen residues; the nine-residue peptide of the earlier study extended by two residues at each end; also called "longer" Dos-S2; source: synthetic peptide, bought: Eurofins Genomics
# Columns and labels:
# [1] = molecular target: T1, C-terminal SH3 domain of Drosophila Drk (Drk-CSH3) (Drosophila, UniProt Q08012 153-211); experiment: NMR titration; 2D 1H-15N HSQC of 15N-labelled Drk-CSH3 (0.3 mM), peptide added stepwise up to protein:peptide 1:8; NMR buffer (20 mM KH2PO4/K2HPO4 pH 7.4, 100 mM KCl, 1 mM DTT, 0.05% NaN3); 25 °C; CSPs fitted to a single-binding model, bootstrap 1000 iterations; details: both partners purified
# T1 construct: Downstream receptor kinase (Drk), Drosophila homologue of GRB2, 211 residues; C-terminal SH3 domain; the solution structure PDB 7Y4N is of this domain
# T1 sequence (Q08012 153-211): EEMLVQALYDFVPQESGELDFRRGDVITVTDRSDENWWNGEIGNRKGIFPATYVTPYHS
# [2] = molecular target: T2, N-terminal SH3 domain of Drosophila Drk (Drk-NSH3) (Drosophila, UniProt Q08012 1-59); experiment: NMR titration; 2D 1H-15N HSQC of 15N-labelled Drk-NSH3 (0.3 mM), peptide added stepwise up to protein:peptide 1:8; 20 mM KH2PO4/K2HPO4 pH 7.4, 100 mM KCl, 1 mM DTT, 0.05% NaN3, 10% D2O; 25 °C; CSPs fitted to a conformational selection model (Kd and Kf), bootstrap 1000 iterations; details: both partners purified
# T2 construct: Downstream receptor kinase (Drk), Drosophila homologue of GRB2, 211 residues; N-terminal SH3 domain, residues 1-59; Isolated domain is in equilibrium between a folded and an unfolded state; source: E. coli BL21 (DE3) star, pET-3a, uniformly 15N-labelled, purified (DEAE sepharose, Superdex 75, Resource Q)
# T2 sequence (Q08012 1-59): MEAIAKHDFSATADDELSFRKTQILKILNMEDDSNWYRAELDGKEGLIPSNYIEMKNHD
binder,measurement,setting,value
B1,Kd,[1],250 ± 21.5 µM
same,Kd,[2],242 ± 11.6 µM
